Reference: patent US20230002460A1 (YUHAN, published 2023)
Changes are numbered by the printed parent chain. Names may count otherwise. Read-outs that look alike come from different tables or passages of the source.

B1: long-acting GDF15 fusion protein (dimer) FWT + Fc_hole (ΔN2) (Fc fusion)
chain 1: APALAGGPSVFLFPPKPKDTLMISRTPEVTCVVVDVSHEDPEVKFNWYVDGVEVHNAKTKPREEQYNSTYRVVSVLTVLHQDWLNGKEYKCKVSNKALPAPIEKTISKAKGQPREPQVYTLPPSREEMTKNQVSLWCLVKGFYPSDIAVEWESNGQPENNYKTTPPVLDSDGSFFLYSKLTVDKSRWQQGNVFSCSVMHEALHNHYTQKSLSLSPGKGGGGSGGGGSGGGGSGGGGSGGGGSNGDHCPLGPGRCCRLHTVRASLEDLGWADWVLSPREVQVTMCIGACPSQFRAANMHAQIKTSLHRLKPDTVPAPCCVPASYNPMVLIQKTDTGVSLQTYDDLLAKDCHCI
chain 2: not shown
B2: long-acting GDF15 fusion protein (dimer) FM14 + Fc_hole (ΔN2, S64D) (Fc fusion)
chain 1: B1 chain 1 with S304D
chain 2: not shown
B3: long-acting GDF15 fusion protein (dimer) FM15 + Fc_hole (ΔN2, S64E) (Fc fusion)
chain 1: B1 chain 1 with S304E
chain 2: not shown

Key:
Assay in all cases: cell-based or functional assay
[1] = target: T1, GDF15 receptors GFRAL and RET, overexpressed together on HEK293 cells (UniProt Q6UXV0 19-394; P07949 29-1114, limits assumed)
[2] = target: T1, GDF15 receptors GFRAL and RET, …; remark: listed apart in the source
[3] = target: T1, GDF15 receptors GFRAL and RET, …; remark: listed apart in the source

T1 sequence (Q6UXV0 19-394 limits assumed, chain 1 of 2): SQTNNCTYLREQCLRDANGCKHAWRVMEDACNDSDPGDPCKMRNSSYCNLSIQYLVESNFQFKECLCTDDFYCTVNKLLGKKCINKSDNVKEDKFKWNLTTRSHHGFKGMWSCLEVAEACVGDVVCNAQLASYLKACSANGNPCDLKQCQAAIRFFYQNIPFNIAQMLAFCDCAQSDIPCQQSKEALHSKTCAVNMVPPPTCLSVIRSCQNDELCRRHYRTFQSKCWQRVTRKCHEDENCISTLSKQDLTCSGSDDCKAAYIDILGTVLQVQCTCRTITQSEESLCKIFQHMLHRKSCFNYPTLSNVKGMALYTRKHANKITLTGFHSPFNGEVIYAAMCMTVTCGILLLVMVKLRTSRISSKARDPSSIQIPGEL
T1 sequence (P07949 29-1114 limits assumed, chain 2 of 2): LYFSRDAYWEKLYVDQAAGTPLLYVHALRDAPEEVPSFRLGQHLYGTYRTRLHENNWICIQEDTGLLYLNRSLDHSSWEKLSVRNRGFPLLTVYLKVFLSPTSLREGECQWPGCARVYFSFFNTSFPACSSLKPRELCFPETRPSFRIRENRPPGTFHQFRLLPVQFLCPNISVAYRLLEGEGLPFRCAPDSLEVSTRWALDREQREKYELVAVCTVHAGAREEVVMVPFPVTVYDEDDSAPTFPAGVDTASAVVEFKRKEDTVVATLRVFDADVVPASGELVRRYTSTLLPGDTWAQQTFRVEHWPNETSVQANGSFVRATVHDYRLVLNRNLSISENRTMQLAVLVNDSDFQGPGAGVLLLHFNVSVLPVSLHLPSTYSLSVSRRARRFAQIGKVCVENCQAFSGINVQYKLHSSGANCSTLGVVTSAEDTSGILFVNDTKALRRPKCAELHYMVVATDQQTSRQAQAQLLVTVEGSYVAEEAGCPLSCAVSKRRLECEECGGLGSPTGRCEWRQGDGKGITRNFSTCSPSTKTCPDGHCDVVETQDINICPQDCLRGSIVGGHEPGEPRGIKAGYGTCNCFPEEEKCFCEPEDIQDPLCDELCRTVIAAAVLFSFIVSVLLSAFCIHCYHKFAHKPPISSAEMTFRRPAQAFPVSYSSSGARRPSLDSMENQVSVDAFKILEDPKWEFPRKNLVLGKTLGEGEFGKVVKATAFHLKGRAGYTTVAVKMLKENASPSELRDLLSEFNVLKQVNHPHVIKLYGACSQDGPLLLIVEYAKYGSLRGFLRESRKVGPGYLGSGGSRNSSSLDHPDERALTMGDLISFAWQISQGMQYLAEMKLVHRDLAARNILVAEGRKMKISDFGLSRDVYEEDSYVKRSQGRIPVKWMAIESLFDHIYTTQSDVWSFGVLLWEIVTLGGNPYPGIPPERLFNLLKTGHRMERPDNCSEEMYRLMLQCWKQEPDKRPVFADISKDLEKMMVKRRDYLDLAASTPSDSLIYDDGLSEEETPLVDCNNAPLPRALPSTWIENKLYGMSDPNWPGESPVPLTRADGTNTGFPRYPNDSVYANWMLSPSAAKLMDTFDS

Row | EC50 [1] [nM] | Emax (%) [relative to FWT 100%] [1] [%] | EC50 [2] [nM] | Emax (%) [relative to FWT 100%] [2] [%] | EC50 [3] [nM] | Emax (%) [relative to FWT 100%] [3] [%] | Binder
1 | 7 | 100 | 7.3 | 100 | 5.4 | 100 | B1
2 | – | – | 7.9 | 48.2 | – | – | B2
3 | – | – | 33.6 | 41 | – | – | B3
